Measurements taken from article PMC8329185.
pKd: −log10 of the molar value.

Experiments:
SNUPN (Homo sapiens) = SNUPN (Homo sapiens) (UniProt O95149); details: cited from earlier work
GFP-RPS6KA3 = assay: bead halo assay
GFP-NELF = assay: bead halo assay
GFP-CPSF6 = assay: bead halo assay
GFP-SRSF7 = assay: bead halo assay
GFP-TRAP1 = assay: bead halo assay
EIF5A (Homo sapiens) = EIF5A (Homo sapiens) (UniProt P63241); details: cited from earlier work
Sequence of EIF5A (Homo sapiens) (P63241 2-154): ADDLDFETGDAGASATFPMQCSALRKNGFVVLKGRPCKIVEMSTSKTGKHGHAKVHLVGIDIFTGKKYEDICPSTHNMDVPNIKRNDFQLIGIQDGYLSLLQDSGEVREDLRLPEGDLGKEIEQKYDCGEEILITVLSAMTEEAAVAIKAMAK

Sequence of Xpo4 (Q9C0E2 whole entry): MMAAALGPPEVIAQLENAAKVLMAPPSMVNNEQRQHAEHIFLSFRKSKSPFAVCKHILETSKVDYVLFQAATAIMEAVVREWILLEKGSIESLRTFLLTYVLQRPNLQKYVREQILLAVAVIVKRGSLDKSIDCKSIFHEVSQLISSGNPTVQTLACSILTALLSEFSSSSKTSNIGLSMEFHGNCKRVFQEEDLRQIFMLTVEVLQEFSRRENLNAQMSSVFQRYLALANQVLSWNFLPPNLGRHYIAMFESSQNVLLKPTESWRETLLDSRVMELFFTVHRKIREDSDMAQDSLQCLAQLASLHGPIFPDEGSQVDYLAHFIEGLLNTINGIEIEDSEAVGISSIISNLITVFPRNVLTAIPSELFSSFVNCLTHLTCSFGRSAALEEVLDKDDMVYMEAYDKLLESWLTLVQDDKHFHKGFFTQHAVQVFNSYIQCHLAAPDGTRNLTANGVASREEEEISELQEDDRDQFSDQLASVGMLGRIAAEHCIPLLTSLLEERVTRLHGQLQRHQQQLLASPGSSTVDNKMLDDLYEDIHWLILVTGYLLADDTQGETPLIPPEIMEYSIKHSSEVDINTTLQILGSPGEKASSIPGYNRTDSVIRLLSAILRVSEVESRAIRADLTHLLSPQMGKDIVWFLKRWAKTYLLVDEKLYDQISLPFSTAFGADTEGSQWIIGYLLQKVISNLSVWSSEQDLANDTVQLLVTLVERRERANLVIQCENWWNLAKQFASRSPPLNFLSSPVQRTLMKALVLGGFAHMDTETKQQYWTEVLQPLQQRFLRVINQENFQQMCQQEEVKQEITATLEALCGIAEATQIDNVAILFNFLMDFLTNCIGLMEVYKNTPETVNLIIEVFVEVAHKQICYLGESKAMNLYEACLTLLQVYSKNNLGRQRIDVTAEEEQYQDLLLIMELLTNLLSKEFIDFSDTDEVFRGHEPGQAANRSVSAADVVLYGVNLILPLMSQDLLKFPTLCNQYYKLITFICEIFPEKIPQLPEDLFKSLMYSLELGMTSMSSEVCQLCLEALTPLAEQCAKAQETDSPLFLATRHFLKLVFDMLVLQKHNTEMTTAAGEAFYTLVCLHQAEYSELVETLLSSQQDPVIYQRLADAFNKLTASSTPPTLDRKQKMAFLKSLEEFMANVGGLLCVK
Sequence of SNUPN (Homo sapiens) (O95149 whole entry): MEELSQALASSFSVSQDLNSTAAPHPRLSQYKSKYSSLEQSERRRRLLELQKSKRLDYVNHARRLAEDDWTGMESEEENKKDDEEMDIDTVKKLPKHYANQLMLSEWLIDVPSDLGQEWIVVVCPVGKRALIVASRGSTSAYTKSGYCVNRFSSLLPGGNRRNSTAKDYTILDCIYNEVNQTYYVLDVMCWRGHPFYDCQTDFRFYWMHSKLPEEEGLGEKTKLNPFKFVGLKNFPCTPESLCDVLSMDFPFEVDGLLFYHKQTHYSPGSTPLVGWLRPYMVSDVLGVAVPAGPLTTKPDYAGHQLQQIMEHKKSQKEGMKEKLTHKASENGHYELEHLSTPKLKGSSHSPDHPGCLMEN
Sequence of CRM1 (O14980 whole entry): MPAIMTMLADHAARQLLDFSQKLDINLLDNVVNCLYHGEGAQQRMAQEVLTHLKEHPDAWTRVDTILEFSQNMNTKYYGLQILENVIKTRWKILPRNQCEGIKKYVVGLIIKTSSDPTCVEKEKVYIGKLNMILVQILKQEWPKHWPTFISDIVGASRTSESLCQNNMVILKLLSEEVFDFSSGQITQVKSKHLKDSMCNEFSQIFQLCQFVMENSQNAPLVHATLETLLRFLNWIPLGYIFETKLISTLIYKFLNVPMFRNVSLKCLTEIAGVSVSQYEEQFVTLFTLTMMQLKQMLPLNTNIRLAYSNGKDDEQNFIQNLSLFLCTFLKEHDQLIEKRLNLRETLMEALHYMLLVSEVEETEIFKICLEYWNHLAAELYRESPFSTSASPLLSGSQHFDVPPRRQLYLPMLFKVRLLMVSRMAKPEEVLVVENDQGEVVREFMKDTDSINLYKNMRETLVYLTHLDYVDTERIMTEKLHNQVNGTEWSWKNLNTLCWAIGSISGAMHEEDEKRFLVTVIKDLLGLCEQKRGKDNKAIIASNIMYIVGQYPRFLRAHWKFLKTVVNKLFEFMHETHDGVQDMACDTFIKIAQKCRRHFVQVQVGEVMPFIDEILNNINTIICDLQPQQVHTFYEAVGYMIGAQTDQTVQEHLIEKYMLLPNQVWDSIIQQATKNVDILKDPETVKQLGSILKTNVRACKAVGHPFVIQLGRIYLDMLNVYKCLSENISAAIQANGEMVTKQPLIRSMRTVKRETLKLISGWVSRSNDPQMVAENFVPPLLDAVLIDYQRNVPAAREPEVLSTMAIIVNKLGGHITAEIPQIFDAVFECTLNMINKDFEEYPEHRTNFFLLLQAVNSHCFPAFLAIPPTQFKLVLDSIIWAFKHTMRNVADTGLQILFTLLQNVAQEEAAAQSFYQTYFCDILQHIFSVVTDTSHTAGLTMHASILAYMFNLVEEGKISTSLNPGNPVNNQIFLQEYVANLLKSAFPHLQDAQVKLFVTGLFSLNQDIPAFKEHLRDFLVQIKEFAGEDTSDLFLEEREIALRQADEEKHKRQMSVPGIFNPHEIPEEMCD

| response (GFP-RPS6KA3) [GFP/mCherry] | response (GFP-NELF) [GFP/mCherry] | response (GFP-CPSF6) [GFP/mCherry] | response (GFP-SRSF7) [GFP/mCherry] | response (GFP-TRAP1) [GFP/mCherry] | Substance | pKd (SNUPN (Homo sapiens)) | pKd (EIF5A (Homo sapiens)) |
| --- | --- | --- | --- | --- | --- | --- | --- |
| – | – | – | – | – | CRM1 (from UniProt O14980) | 8.00 | – |
| 0.13 | 2.89 | 0.46 | 0.67 | 1.35 | GST-mCherry-TrnSR (WT) (from UniProt Q9Y5L0) D409R | – | – |
| 0.09 | 1.14 | 0.15 | 0.94 | 1.11 | GST-mCherry-TrnSR (WT) (from UniProt Q9Y5L0) E398R | – | – |
| 0.37 | 0.5 | 0.15 | 0.26 | 1.16 | GST-mCherry-TrnSR (WT) (from UniProt Q9Y5L0) R671E | – | – |
| – | – | – | – | – | Xpo4 (from UniProt Q9C0E2) | – | 8.70 |
